Data reported in paper PMC11187873.
“And” between values parts separate entries of the source, which are not always exact repeats. Identical values can stand only once.

Columns and labels:
[1] = target: PR(T26A)‐RT model precursor (HIV‐1 isolate BH10); assay: SEC-MALS
[2] = target: PR‐RT model precursor (His6‐SUMO‐Δp6*‐PR(D25A)‐RT) (HIV‐1 isolate BH10); assay: SEC-MALS

Substance | stoichiometry N [1] | stoichiometry N [2]
PR(T26A)‐RT model precursor (domain or fragment) | 2 and 4 | 
PR‐RT model precursor (His6‐SUMO‐Δp6*‐PR(D25A)‐RT) (domain or fragment) |  | 2 and 4
